Assay results published in US20090285813A1.

Biological target: human CD3 (human) (UniProt P07766)
Experiment: cell-based or functional assay

Sequence of human CD3 (human) (P07766 23-207): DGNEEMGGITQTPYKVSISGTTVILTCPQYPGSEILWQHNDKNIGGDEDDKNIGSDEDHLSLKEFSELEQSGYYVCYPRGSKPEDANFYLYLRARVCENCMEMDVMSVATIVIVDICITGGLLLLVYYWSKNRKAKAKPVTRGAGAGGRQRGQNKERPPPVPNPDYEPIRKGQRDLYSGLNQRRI

Apo-One Apoptosis Assay, 12.5 ng/ml: 250
Apo-One Apoptosis Assay, 25 ng/ml: 259
Apo-One Apoptosis Assay, 50 ng/ml: 234
Substance: Irrelevant human IgG1 (EMD Biosciences Cat. 400120) (antibody)
